Assay: soluble on expression in E. coli; label from the status in PepcDB or PDB records

| Sequence | soluble on expression in E. coli |
| --- | --- |
| MGSDKIHHHHHHMKIHFVGIGGIGMSAVALHEFSNGNDVYGSNIEETERTAYLRKLGIPIFVPHSADNWYDPDLVIKTPAVRDDNPEIVRARMERVPIENRLHYFRDTLKREKKEEFAVTGTDGKTTTTAMVAHVLKHLRKSPTVFLGGIMDSLEHGNYEKGNGPVVYELDESEEFFSEFSPNYLIITNARGDHLENYGNSLTRYRSAFEKISRNTDLVVTFAEDELTSHLGDVTFGVKKGTYTLEMRSASRAEQKAMVEKNGKRYLELKLKVPGFHNVLNALAVIALFDSLGYDLAPVLEALEEFRGVHRRFSIAFHDPETNIYVIDDYAHTPDEIRNLLQTAKEVFENEKIVVIFQPHRYSRLEREDGNFAKALQLADEVVVTEVYDAFEEKKNGISGKMIWDSLKSLGKEAYFVEKLPELEKVISVSENTVFLFVGAGDIIYSSRRFVERYQSSKSSPSRVLGSNK | soluble |
| MGSDKIHHHHHHMKIKKGDTEAEILTKGAYLYSFKIGNRDMILRGDLERPTRGGMAILIPFANRVKNAEYVFEGVKYTLPQNREGNAIHGLVMDKEFNVIGKSEDSISLQYILEHEGYPSKLDCVITYKVFKYGLRIKIVVRNVGNKRAPLTVGAHPYFITADDWRIVVEKEESIKKCISFNKIPTGELVKTKLEHTDYDDCFLISGGIQLHSSYSKVRITRRNMPFVQIYTGVRGSIAIEPMSGAPDAYHNGLGLKILEPNESSYFAFAFRFH | not soluble |
| MGSDKIHHHHHHMKILWITSVYPSSMKPGEGVFHETQVQELQKLGLDITVICPRPFHSAPVRMLKKTYRKKDVRPEYEIRKGIPVYRPFYRAVPGQLKWAQPHRRIASAVLKTMKQRDLYPDLIHAHFAMPSGGAAAVVSESAQIPYVLTLHGSDVNVYPHYSKGAFKAFKRAVGSASVVLAVSHKLQEEAKKLSGFDSSVLPIGIQLSRFQGNEETKEEIRKRLGLPLDQRLAVYVGRLVREKGIFELSEAIESLQDSPKAVFVGDGPAKSTLTQKGHIVTGQVPNHQVRDYLLAADLFVLPSYSEGMPTVVIEALALRVPVICTDVGGVSSLFGKHQHLLIKPKSAQALAEAITRYEHEQIWKPEVADDLYETVQAQFDAGKNAKALHHQYQTVTKTSV | not soluble |
| MGSDKIHHHHHHMKITWFGHACFALEMEGKTIVTDPFDESVGYPIPNVTADVVTESHQHFDHNAHHLVKGNFRVIDRPGAYTVNGVKIKGVETFHDPSHGRERGKNIVFVFEGEGIKVCHLGDLGHVLTPAQVEEIGEIDVLLVPVGGTYTIGPKEAKEVADLLNAKVIIPMHYKTKYLKFNLLPVDDFLKLFDSYERVGNILELFEKPKERKVVVMEVQ | soluble |
| MGSDKIHHHHHHMKIVYFVDGLNRGGVESVVCHLSSSFAKLRNKIYIICLHKDMNDLHLEIPEYISVFYLPFESNRNHHVNYIRYLPNLVDLLKKIKPDIVHAHNSSFSYFFLSIGILLSRTVPVNIRSIHFSGFFLEKRTIEDKIRFIFDWCACRLLKTIIISVGPTVSRVVKRLYTSNQHLTIVNGIDTKEKFCKRNLTKSCMGISEDKYVAVYVARICEGKNHDTLIKAWEIVTQYHPSALLLFIGDGPLKEQYQSVVHEKSLDDKITFTGSIPNIVEYLSIADVGVFPSESEGLPLVLMEMMAVELPVVASKIPSCCDLIEENVNGILYETYDYKDLANKILSVLCDNELKKKLGEQAKLLVCNHYSIENMINRHNILYQKLLLKQNFTDAYN | not soluble |
| MGSDKIHHHHHHMKKAAIITIGSELLEGLILNKNAQFLCQELKNLGYRVVKVSTVGDDLISISEEVKTLLLKVDLLILTGGLGPTQDDLTRDAVAKVLNRSLKLNEELLSKIKEKIKKYHSEIPQNIERQALVIDGAEVLDNPVGSAPGQLLTVDGKIVILLPGPPRELIPMFNALKDRLRTPDALYQVVLKYYSIPEAVLEDLLKDILYSQNIVEVATMADHVEGVRLRLTTHMKNKEYLDEMVKKILDKTGEHLYGVNDEKMEEVVVRLLKDRKKTLAVAESCTGGMLSSLVVNVPGASEVFIGGVVAYSNDLKKHILGVREDTLKKHGAVSEECVQEMTEGLKKLTGADICVSISGIAGPSGGTPEKPVGTVFIDIFEHEHITMRYNFTGDRNMIRTRSAMMALENLRKYLKGRERV | not soluble |
| MGSDKIHHHHHHMKKGFSALVEHNGYRVLVDTGTDGKILLNNMEGLGIDPNSIDALFLTHGHYDHTGGIAELLKARKDTLDVYAHPRIFEKRIALKPKRRDIGIPFSQEELESLGAIFHLNDKALEFLPGLISSGEIKRETWDRAVGYLLNNEKDPVRDDMALLIDLGDKIAVITGCGHSGILNIAKHAVEISKKPIRALIGGFHLRGASITILEDAVRGLKELNVEMLYPGHCTGIDEYAYLRMKLKAEHLNVGKEIVIK | not soluble |
| MGSDKIHHHHHHMKKHAYLIIAHDNWKILEKLLILLDDKRNDIYLHIDRKSNLINFSNNVHNANLFVFHEIDVRWGDISLIQVEFFLFKTAYCKGNYSYYHLISGSDLPLKTQDEIHAFFDAHYPTEFIGFSLEMTCDDRVNRAYIFPKYQRIKNRYGNKLLGSLRSFCAFLQKILNYNHYKLKDKLMIGPEWVSITEQSVSLILSKEKVIMKQYRFASCGDEVYKQTIIGNSFLFNYVYDKNDDYKGCMRYIDWTRGNPYIFRSADFEQLMSSDRMFARKFDEKVDFDIVERIFEVLNGQTSDSKMKYYF | not soluble |
| MGSDKIHHHHHHMKKILYLHAGAELYGADKVLLELIKGLDKNEFEAHVILPNDGVLVPALREVGAQVEVINYPILRRKYFNPKGIFDYFISYHHYSKQIAQYAIENKVDIIHNNTTAVLEGIYLKRKLKLPLLWHVHEIIVKPKFISDSINFLMGRFADKIVTVSQAVANHIKQSPHIKDDQISVIYNGVDNKVYYQSDARSVRERFDIDEEALVIGMVGRVNAWKGQGDFLEAVAPILEQNPKAIAFIAGSAFEGEEWRVVELEKKISQLKVSSQVRRIDYYANTTELYNMFDIFVLPSTNPDPLPTVVLEAMACGKPVVGYRHGGVCEMVKEGVNGFLVTPNSPLNLSKVILQLSENINLRKKIGNNSIERQKEHFSLKSYVKNFSKVYTSLKVY | not soluble |
| MGSDKIHHHHHHMKKIYKSLTVSAIVATVSLSALPQSLAITHESQPTKQQRTVLFDRSHGQTAGAADWVSDGAFSDYADSIQKQGYDVKAIDGHSNITEASLKSSKIFVIPEANIPFKESEQAAIVNYVKQGGNVVFISDHYNADRNLNRIDSSEAMNGYRRGAYEDMSKGMNAEEKSSTAMQGVKSSDWLSTNFGVRFRYNALGDLNTSNIVSSKESFGITEGVKSVSMHAGSTLAITNPEKAKGIVYTPEQLPAKSKWSHAVDQGIYNGGGKAEGPYVAISKVGKGKAAFIGDSSLVEDSSPKYVREDNGEKKKTYDGFKEQDNGKLLNNITAWMSKDSDGKSLKASGLTLDTKTKLLDFERPERSTEPEKEPWSQPPSGYKWYDPTTFKAGSYGSEKGADPQPNTPDDHTPPNQNVKISFDIPQNVSVNEPFEVTIHLKGFEANQTLENLRVGIYKEGGRQIGQFSSKDNDYNPPGYSTLPTVKADENGNATIKINAKVLESMEGSKIRLKLGDKTLITTDFK | not soluble |
| MGSDKIHHHHHHMKKLVATAPRVAALVEYEDRAILANEVKIRVRFGAPKHGTEVVDFRAASPFIDEDFNGEWQMFTPRPADAPRGIEFGKFQLGNMVVGDIIECGSDVTDYAVGDSVCGYGPLSETVIINAVNNYKLRKMPQGSSWKNAVCYDPAQFAMSGVRDANVRVGDFVVVVGLGAIGQIAIQLAKRAGASVVIGVDPIAHRCDIARRHGADFCLNPIGTDVGKEIKTLTGKQGADVIIETSGYADALQSALRGLAYGGTISYVAFAKPFAEGFNLGREAHFNNAKIVFSRACSEPNPDYPRWSRKRIEETCWELLMNGYLNCEDLIDPVVTFANSPESYMQYVDQHPEQSIKMGVTF | not soluble |
| MGSDKIHHHHHHMKKPQSNFPHLQLKDGILKDQLYHAFREAILDGRLHPRMKLPSSRALSETMQISRNSVLQGFERLIDEGYLLTKPGSGTYVSDTIPDELIDIPNSSRESAQAFDSNVDINPQLIEMARLKAKGNTDHSHSMLNIGVGCVDLFPHQLWGRLLGRVWRQSRKTLGKSNHSAGYLPLREAISDYARSTRGLNCTPEQIIIVNGTQQAINLTAQVLLQQGDEVWLDEPGYDGALGAFLSQNMRVRPVSVDVEGTNIADAIQRYPAVKLAFTAPSHQFPLGGMLSLPRRLALLDWAAEQSKWILEDDYNGEFRYSARPIQALQGLDKYQRVIYAGTFSKMLLPELRLGFLVVPSKLVQAFQLAKHYADTHTAHLEQATLALFITEGHYARHVRRVRKACLARQTALIAAIEQYLPDKLSVQTSDSGIHLVCWLKGDLTEEKVINKCRQLSLGAQPLSRYCQAPYPRQAILLGYAAHTPDELRESIKKLAQIL | not soluble |
| MGSDKIHHHHHHMKKPSQFDAIVVGAGPSGNAAAYTMARAGLKVLQIERGEYPGSKNVQGAILYAKALEEIIPDFRDDAPLERHIIEQRIWMLDDTSFVGTHMRSEEYNKPPYNRYTIIRAQFDKWFSSKVREAGALLICETTVKQLIMDGDQVVGVQCDREHGDVYADVVVLADGVNSTLARKAGFHGEIEAGNVALAVKEILFMPEETIRQRFNIGEDDGVVIEMVGRITDGMTGTGFLYTNKESLTIGVGCMLGDFKKNPNRTSPYVLLEKMKQHPSIAPLIAGGEMKEYCAHLIPEGGFHAIPRVYGNGWMIVGDSGGFVNAAHREGSNLAMTTGRLAAETVIHAKAAGLGYRAATLKAYKAALDQSFVMKDLHKYRDMPAVLHQNPQFFTTYPDLVARAARTMLTVDGKDKKSKEREIFSSFRKARSLAGMVGDAYKLLRAFR | not soluble |
| MGSDKIHHHHHHMKKSKHISQSELESYLWGAATLLRGYIDAGDYKQFIFPLLFYKRLCDVYDEELADALEESGGDQEYAALPEQHRFQIPEDAHWKATRTKVKNVGKAIQDALRAIETANPDTLYGVFGDAQWTNKDRLPDRMLRELIEHFSSQTLSLSNCPEDELGVGYEFLIKKFADDSGHTAAEFYTNRTVVHLMTEMLEPKPGESIYDPTCGSAGMLLSAVAHLKRQNKEWRNLRLFGQERNLLTSAIGRMNLFLHGIEDFRIVRGDTLANPAFVEGDRLMQFDVVLANPPYSIKQWDRDAWSADPWGRNIYGTPPQGRADYAFWQHIIKSMKAKSGRCAILFPHGVLFRNEESAMREKLVAHDVVECVLGLGPNLFYNSPMEACVVICRMNKPKERRNKVLFINAVNEVTRERAQSFLTDDHIQRIVAAYQAFGDEDGFARVVGNDEIREKASNLSIPLYVRAENGNGNGNGSTETVSLKQAIANWQESSMALRESMDGLLSSLEGGLHGS | not soluble |
| MGSDKIHHHHHHMKKTYLFSPGPVMVTDKVRNSLLHYDICHRGNEFMNLFKDTQQKINKLYNATSNYYSLIVSGSGTSVNECVLSSIFDKEDAVLLVSNGVFGERLEEILSTYNVKTYKPNFEWAEYPDLDILEKYIIENSDIKVIAMVFHETSSGMINPVPELGKLAKKYNKIFFVDAISASAGEYIDVEEFNIDIITGVGGKALGAFPGSAYLCAKESILQNIKENQCKNVYLNLYKHYKVAKSSSQTPNTPNVTLIFALNEALTEFLEDDSKIERYKECSAILRNGMEELGLTFLLPDKYMSNTVTSVFLPKEINVNEFILGLERESGYVVYPGKGKFLDANIFQVANMGEIYPEDCYKFLDILKSKLEIKKVI | not soluble |
| MGSDKIHHHHHHMKLITVSGPPSSGKTSLIIKTVESLKAQNIKVGIVKFDCLYTDDDILYEKAGILVKKGLSGSVCPDHFFASNIEEVVQWGKTNNLDLLITESAGLCNRCSPYLKDIKAVCVIDNLSGINTPKKIGPMLKLADIVVITKGDIVSQAEREVFASRVQTVNPKAAIIHINGLTGQGTYEFGSLIMDKNEEIDTVIERKLRFPLPSAVCSYCLGETRIGNNYQLGNIRKINFEEQ | not soluble |

Source: the DeepSol protein solubility set
